Laboratory results from article PMC3302947 (Biochemistry, 2012).

B1: MBP-Vif(101–160) (domain or fragment)
chain: ELADQLIHLYYFDCFSDSAIRKALLGHIVSPRCEYQAGHNKVGSLQYLALAALITPKKIK
B2: MBP-Vif(101–192) (domain or fragment)
chain: ELADQLIHLYYFDCFSDSAIRKALLGHIVSPRCEYQAGHNKVGSLQYLALAALITPKKIKPPLPSVTKLTEDRWNKPQKTKGHRGSHTMNGH
B3: MBP-Vif(101–165) (domain or fragment)
chain: ELADQLIHLYYFDCFSDSAIRKALLGHIVSPRCEYQAGHNKVGSLQYLALAALITPKKIKPPLPS
B4: MBP-Vif(101–176)_(AALA) (domain or fragment)
chain: ELADQLIHLYYFDCFSDSAIRKALLGHIVSPRCEYQAGHNKVGSLQYLALAALITPKKIKAALASVTKLTEDRWNK
B5: MBP-Vif(101–176)_(PPGP) (domain or fragment)
chain: not shown
B6: MBP-Vif(101–176) V166S (domain or fragment)
chain: not shown
B7: MBP-Vif(101–172) (domain or fragment)
chain: ELADQLIHLYYFDCFSDSAIRKALLGHIVSPRCEYQAGHNKVGSLQYLALAALITPKKIKPPLPSVTKLTED
B8: MBP-Vif(101–176) (domain or fragment)
chain: not shown
B9: MBP-Vif(101–176)_(PPPP) (domain or fragment)
chain: not shown

Assays:
Test in all cases: AUC
AUC [1] = target: the molecule itself
AUC [2] = target: the molecule itself; remark: listed apart in the source
AUC [3] = target: the molecule itself; remark: listed apart in the source

Protein	percent monomer at 10 μM (AUC [1])	binding result (AUC [3])	also measured
B1	< 30%		
B2	< 30%		
B3	< 30%		
ITPKKIKPPLPSVTKLTEDRWNK (domain or fragment) [MBP-Vif(154–176)]			stoichiometry N (AUC [2]): 2
B4		binds	
B5		binds	
B6		binds	
B7	< 30%		
B8	< 30%		
B9		binds	
